Laboratory results reported in patent US20240417436A1 (BRIGHT PEAK THERAPEUTICS, published 2024).
Bridges are numbered along the chain shown (N, C = ends). Primed or numbered codes have the meaning given here. [ ]: non-standard residue; d: D form. Ygp″ = O-(PEG8-amino)-tyrosine (O-(8x polyethylene glycol-amino)-tyrosine); Yn3″ = O-(PEG9-azido)-tyrosine (O-(9x polyethylene glycol-azido)-tyrosine); cleavable peptide, 4x polyethylene glycol = not defined here; Ygp = O-(8x polyethylene glycol-amino)-tyrosine; Yn3 = O-(9x polyethylene glycol-azido)-tyrosine; 4x polyethylene glycol = not defined here; PEG16′ = 16x polyethylene glycol; hSer = N[C@@H](CCO)C(=O)O; Nle = CCCC[C@H](N)C(=O)O

Target: T1, IL-2 receptor βγ complex on pan T cells (human, UniProt P14784 27-551; P31785 23-369)
T1 sequence (looked up) 1: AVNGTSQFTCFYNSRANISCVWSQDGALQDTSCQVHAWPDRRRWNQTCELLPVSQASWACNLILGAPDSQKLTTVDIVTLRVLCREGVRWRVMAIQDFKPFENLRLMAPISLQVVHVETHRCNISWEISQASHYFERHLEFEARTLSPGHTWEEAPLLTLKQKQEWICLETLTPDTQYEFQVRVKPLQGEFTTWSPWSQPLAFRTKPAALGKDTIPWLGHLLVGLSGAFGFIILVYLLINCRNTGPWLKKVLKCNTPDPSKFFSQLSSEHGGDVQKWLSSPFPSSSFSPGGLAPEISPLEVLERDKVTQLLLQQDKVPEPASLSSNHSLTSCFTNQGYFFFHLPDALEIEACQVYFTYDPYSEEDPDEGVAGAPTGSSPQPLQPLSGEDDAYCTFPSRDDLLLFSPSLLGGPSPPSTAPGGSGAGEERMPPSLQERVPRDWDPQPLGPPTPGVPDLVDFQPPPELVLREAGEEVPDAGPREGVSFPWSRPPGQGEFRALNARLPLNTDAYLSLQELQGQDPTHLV
T1 sequence (looked up) 2: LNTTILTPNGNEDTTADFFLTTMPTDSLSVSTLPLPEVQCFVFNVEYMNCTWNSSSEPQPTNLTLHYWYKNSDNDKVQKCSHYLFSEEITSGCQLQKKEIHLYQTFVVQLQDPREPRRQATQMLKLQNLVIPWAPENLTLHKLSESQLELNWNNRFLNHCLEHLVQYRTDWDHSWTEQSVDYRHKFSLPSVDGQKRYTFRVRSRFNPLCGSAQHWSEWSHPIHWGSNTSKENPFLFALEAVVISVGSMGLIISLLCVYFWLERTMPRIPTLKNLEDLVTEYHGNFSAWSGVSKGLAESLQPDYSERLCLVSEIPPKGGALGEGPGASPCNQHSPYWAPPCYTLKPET
Assay: cell-based or functional assay

B1: CMP-155, MMP2 cleaved (ligand)
chain: APTSSSTKKTQLQLEHLLLDLQ[Nle]ILNGIENYKNPKLTR[Nle]L[hSer][Yn3]KF[Ygp][Nle]PKKATELKHLQCLEEELKPLEEVL[hSer]LAQSKNFHLRPRDLISNINVIVLELKGSETTF[hSer]CEYADETATIVEFLNRWITFSQSIISTLT
modifications: also: MMP2-cleaved cleavable peptide, macrocycle opened, cut site not given here, remnants on Glu29 and N-terminus unspecified
- Average EC50, pSTAT5 assay in pan T cells, MMP2 cleaved molecule: 2.9 nM

B2: CMP-157 (ligand)
chain: PLGLAGAPTSSSTKKTQLQLEHLLEDLQ[Nle]ILNGINNYKNPKLTR[Nle]L[hSer][Yn3]KF[Ygp][Nle]PKKATELKHLQCLEEELKPLEEVL[hSer]LAQSKNFHLRPRDLISNINVIVLELKGSETTF[hSer]CEYADETATIVEFLNRWITFSQSIISTLT
modifications: linker N-25 via 4x polyethylene glycol; reading uncertain
- Average EC50, pSTAT5 assay in pan T cells, intact molecule: 54.5 nM

B3: CMP-154 (ligand)
chain: PLGLAGAPTSSSTKKTQLQLEHLLLDLQ[Nle]ILNGIENYKNPKLTR[Nle]L[hSer][Yn3]KF[Ygp][Nle]PKKATELKHLQCLEEELKPLEEVL[hSer]LAQSKNFHLRPRDLISNINVIVLELKGSETTF[hSer]CEYADETATIVEFLNRWITFSQSIISTLT
modifications: linker N-35 via 9x polyethylene glycol
- Average EC50, pSTAT5 assay in pan T cells, intact molecule: 24.7 nM

B4: CMP-156, MMP2 cleaved (ligand)
chain: APTSSSTKKTQLQLEHLLEDLQ[Nle]ILNGINNYKNPKLTR[Nle]L[hSer][Yn3]KF[Ygp][Nle]PKKATELKHLQCLEEELKPLEEVL[hSer]LAQSKNFHLRPRDLISNINVIVLELKGSETTF[hSer]CEYADETATIVEFLNRWITFSQSIISTLT
modifications: also: MMP2-cleaved cleavable peptide, macrocycle opened, cut site not given here, remnants on Glu19 and N-terminus unspecified
- Average EC50, pSTAT5 assay in pan T cells, MMP2 cleaved molecule: 21.3 nM

B5: CMP-139, MMP2 cleaved (ligand)
chain: [PEG16′]APTSSSTKKTQLQLEHLLLDLQ[Nle]ILNGIE(PEG16′)NYKNPKLTR[Nle]L[hSer][Yn3]KF[Ygp][Nle]PKKATELKHLQCLEEELKPLEEVL[hSer]LAQSKNFHLRPRDLISNINVIVLELKGSETTF[hSer]CEYADETATIVEFLNRWITFSQSIISTLT
modifications: numbers in words are those of the source; ends and bridges not checked; also: cleavable peptide cut by MMP2, macrocycle opened, cut site not given here
- Average EC50, pSTAT5 assay in pan T cells, MMP2 cleaved molecule: 3.61 nM

B6: CMP-154, MMP2 cleaved (ligand)
chain: PLGLAGAPTSSSTKKTQLQLEHLLLDLQ[Nle]ILNGIENYKNPKLTR[Nle]L[hSer][Yn3]KF[Ygp][Nle]PKKATELKHLQCLEEELKPLEEVL[hSer]LAQSKNFHLRPRDLISNINVIVLELKGSETTF[hSer]CEYADETATIVEFLNRWITFSQSIISTLT
modifications: also: macrocycle (9x PEG linker between residue 1 and Glu35 side chain) opened by MMP2 cleavage within PLGLAG, cut site not given here
- Average EC50, pSTAT5 assay in pan T cells, MMP2 cleaved molecule: 4.2 nM

B7: CMP-156 (ligand)
chain: APTSSSTKKTQLQLEHLLEDLQ[Nle]ILNGINNYKNPKLTR[Nle]L[hSer][Yn3]KF[Ygp][Nle]PKKATELKHLQCLEEELKPLEEVL[hSer]LAQSKNFHLRPRDLISNINVIVLELKGSETTF[hSer]CEYADETATIVEFLNRWITFSQSIISTLT
modifications: linker N-19 via cleavable peptide, 4x polyethylene glycol; not fully specified; reading uncertain
- Average EC50, pSTAT5 assay in pan T cells, intact molecule: 86 nM

B8: CMP-152 (ligand)
chain: PLGLAGAPTSSSTKKTQLQLEHLLLDLQ[Nle]ILNGINNYKNPKLTR[Nle]L[hSer][Yn3]KF[Ygp][Nle]PKKATELKHLQCLEEELKPLEEVL[hSer]LAQSKNFHLRPRDLISNINVIVLELKGSETTF[hSer]CEYADETATIVEFLNRWITFSQSIISTLT
modifications: linker N-38 via 1,5‑pentanedioic acid‑9x polyethylene glycol
- Average EC50, pSTAT5 assay in pan T cells, intact molecule: 16.1 nM

B9: CMP-136, MMP2 cleaved (ligand)
chain: APTSSSTKKTQLQLEHLLLDLQXILNGIENYKNPKLTRXLXYKFYXPKKATELKHLQCLEEELKPLEEVLXLAQSKNFHLRPRDLISNINVIVLELKGSETTFXCEYADETATIVEFLNRWITFSQSIISTLT
modifications: not fully specified; as CMP-136 but cleavable peptide cut by MMP2 (macrocycle opened); cut site not given
- Average EC50, pSTAT5 assay in pan T cells, MMP2 cleaved molecule: 2.4 nM

B10: CMP-138, MMP2 cleaved (ligand)
chain: B9 chain
modifications: not fully specified; as CMP-138 but cleavable peptide cut by MMP2 (macrocycle opened); cut site not given
- Average EC50, pSTAT5 assay in pan T cells, MMP2 cleaved molecule: 2.32 nM

B11: CMP-151, MMP2 cleaved (ligand)
chain: APTSSSTKKTQLQLEHLLLDLQKILNGINNYKNPKLTR[Nle]L[hSer][Yn3]KF[Ygp][Nle]PKKATELKHLQCLEEELKPLEEVL[hSer]LAQSKNFHLRPRDLISNINVIVLELKGSETTF[hSer]CEYADETATIVEFLNRWITFSQSIISTLT
modifications: disulfide 58-105; also: MMP2-cleaved cleavable peptide, macrocycle opened, cut site not given here, remnants on Lys23 and Ala1 N-terminus unspecified
- Average EC50, pSTAT5 assay in pan T cells, MMP2 cleaved molecule: 1.81 nM

B12: CMP-137, MMP2 cleaved (ligand)
chain: APTSSSTKKTQLQLEHLLLDLQ[Nle]ILNGIENYKNPKLTR[Nle]L[hSer][Yn3″]KF[Ygp″][Nle]PKKATELKHLQCLEEELKPLEEVL[hSer]LAQSKNFHLRPRDLISNINVIVLELKGSETTF[hSer]CEYADETATIVEFLNRWITFSQSIISTLT
modifications: not fully specified (residue 29, N-terminus); ends and bridges not checked; also: macrocycle opened by MMP2, Ala1 N-terminus and Glu29 side chain each carry PEG24-linked peptide remnant, cut site not given here
- Average EC50, pSTAT5 assay in pan T cells, MMP2 cleaved molecule: 4.09 nM

B13: CMP-152, MMP2 cleaved (ligand)
chain: PLGLAGAPTSSSTKKTQLQLEHLLLDLQ[Nle]ILNGINNYKNPKLTR[Nle]L[hSer][Yn3]KF[Ygp][Nle]PKKATELKHLQCLEEELKPLEEVL[hSer]LAQSKNFHLRPRDLISNINVIVLELKGSETTF[hSer]CEYADETATIVEFLNRWITFSQSIISTLT
modifications: also: macrocycle (glutaric acid-9x PEG linker between residue 1 and Lys38 side chain) opened by MMP2 cleavage within PLGLAG, cut site not given here
- Average EC50, pSTAT5 assay in pan T cells, MMP2 cleaved molecule: 2.95 nM
